According to patent US20170114140A1 (Amgen, published 2017):
Numbering of substitutions follows the chain as printed.

B1: IL-17RB.Fc (extracellular domain of human IL-17RB fused to the Fc region of human IgG) (Fc fusion, UniProt Q9NRM6 18-292, looked up, not shown: a dimerising Fc or GST)
chain: REPTVQCGSETGPSPEWMLQHDLIPGDLRDLRVEPVTTSVATGDYSILMNVSWVLRADASIRLLKATKICVTGKSNFQSYSCVRCNYTEAFQTQTRPSGGKWTFSYIGFPVELNTVYFIGAHNIPNANMNEDGPSMSVNFTSPGCLDHIMKYKKKCVKAGSLWDPNITACKKNEETVEVNFTTTPLGNRYMALIQHSTIIGFSQVFEPHQKKQTRASVVIPVTGDSEGATVQLTPYFPTCGSDCIRHKGTVVLCPQTGVPFPLDNNKSKPGGWLP
notes: extracellular domain; also called HuIL-17RB: Fc
B2: 4.16.1 (antibody, IgG2, V domains shown)
VH: QVQLVQSGAEVKKPGASVKVSCKASGYTLTSYGISWVRQAPGQGLEWMGWISAYSGNTKYAQKFQGRVTMTTDTSTSTAYMELRSLRSDDTAVYYCARRQLALDYWGQGTLVTVSS
VL: EIVMTQSPATLSVSPGERATLSCRASQSISSNLAWYQQKPGQAPRLLIYGASTRATGIPARFSDNGSGTEFTLTISSLQSEDFAVYFCQQYDTWPLTFGGGTKVEIK
B3: 3.381.1 (antibody, IgG2, V domains shown)
VH: B2 VH with L29F, S31R, K59N, F64L, A102Y, L103F
VL: EIVMTQSPATLSVSPGERVTLSCRASQSVSSNLAWFQQKPGQAPRPLIYDASTRAAGIPARFSGSGSGTDFTLTISSLQSEDFAVYYCQQYDNWPLTFGGGTKVEIK
B4: 1.185.1 (antibody, V domains shown)
VH: QVQLVESGGGVVQPGRSLRLSCAASGINFSSYGMHWVRQAPGKGLEWVAVIWYDGSNKHYADSVKGRFTISRDNSKNTLYLQMNSLRAEDTAVYYCARDTGVYWGQGTLVTVSS
VL: not shown
B5: 2.46.1 (antibody, V domains shown)
VH: QVQLVQSGAEVKKPGASVKVSCKASGNTFTGYGISWVRQAPGQGLEWMGWISAYNGNTNYAQNLQGRVTMTTDTSTSTAYMELRSLRSDDTAVYYCARRDYDILTGYYNGFDPWGQGTLVTVSS
VL: DIQMTQSPSSLSASVGDRVTITCRASQGIRNDLGWYQQKPGKAPKRLIYAASSLQSGVPSRFSGSGSGTEFTLTISSLQPEDFATYYCLQHKSYPLTFGGGTKVEIK
B6: 2.67.1 (antibody, V domains shown)
VH: B5 VH with N27Y, F29L, G31R, N63K
VL: B5 VL
B7: 2.98.1 (antibody, V domains shown)
VH: B5 VH with N27Y, F29L, G31R, N63K
VL: B5 VL
B8: 2.133.1 (antibody, V domains shown)
VH: QVQLQESGPGLVKPSETLSLTCTVSGGSISNYYWNWIRQSPGKGLEWIGDIYYSGSTNYNPSLKSRVTISVDTSKNQFSLKLSSVTTADTAVYYCARDGELANYYGSGSYQFYYYYGMDVWGQGTTVTVSS
VL: B5 VL with Q3L, K92N, Y94N, L96F, G100P, E105D
B9: 3.1404.1 (antibody, IgG2, V domains shown)
VH: B2 VH with L29F, S31R, A53T, K59N, F64L, A102Y, L103F
VL: B3 VL with V19A, A56T, I58V
B10: 4.357.1 (antibody, V domains shown)
VH: B2 VH with A53T, S55K, K59N, F64L, R99K, A102V, L103F
VL: B2 VL with N32S, D64G, N65S, D82N, F87Y, T93N
B11: 4.393.1 (antibody, V domains shown)
VH: B2 VH with L29F, S55N, F64L, A79V, R99K, A102V, L103F
VL: B2 VL with S31T, N32S, A51T, D64G, N65S, T93I
B12: 2.23.1 (antibody, V domains shown)
VH: QVQLVESGGGLVKPGGSLRLSCAASGFTFSDYYMSWIRQAPGKGLEWVSYISSSGSTIYYADSVKGRFTISRDNAKNSLYLQMNSLRAEDTAVYYCARDRTYYFGSGSYEGMDVWGQGTTVTVSS
VL: EILMTQSPATLSVSPGERATLSCRASQSVYSNLAWYQQKPGQAPRLLISGASTRATGIPARFSGSGSGTEFTLTISSLQSEDFAVYYCQQYYNWPWTFGQGTKVEIK
B13: 3.1545.1 (antibody, V domains shown)
VH: EVQLVESGGGSVQPGGSLRLSCAASGFTFSSYSMNWVRQAPGKGLEWVSIISSRSSIIHYADSVKGRFTISRDNAKNSLYLQMNSLRDEDTAVYYCARPKVGGGMDVWGQGTTVTVSS
VL: DIQMTQSPSSLSASVGDRVTITCRASQGISNYLAWYQQKPGKFPELLIYAASTLQSGVPSRFSGSGSGTDFTLTISSLQPEDVATYYCQKYNRAPFTFGPGTKVDIK
B14: 2.225.1 (antibody, V domains shown)
VH: B5 VH with A9V, N27Y, F29L, G31R, N63K
VL: B5 VL

Target: T1, IL-17RA.HIS (extracellular domain of human IL-17RA fused to a polyhistidine tag) (human, UniProt Q96F46 33-320)
T1 construct: extracellular domain
Test: co-immunoprecipitation on Protein G beads, Western blot with anti-IL-17RA

Row | binding result | Binder
1 | binds | B1

Target: T2, human IL-17RA on cells (human PBMC; human foreskin fibroblasts) (human, UniProt Q96F46 33-866)
Test: cell-based or functional assay

Row | % Inhib. of IL-5 production (TSLP treated human PBMC + IL-2 + IL-25), Expt. 2 | % Inhib. of IL-5 production (TSLP treated human PBMC + IL-2 + IL-25), Expt. 3 | % Inhib. of IL-5 production (TSLP treated human PBMC + IL-2 + IL-25), Expt. 1 | Binder
2 | 77% | 100% |  | B2
3 | 82% | 74% | 69% | B3
4 | 41% | 9% | 0% | B4
5 | 6% | 0% | 0% | B5
6 | 13% | 3% | 0% | B6
7 | 79% | 0% | 0% | B7
8 | 16% | 28% | 0% | B8
9 |  | 69% |  | B9
10 |  | 11% | 0% | B10
11 | 72% | 45% | 28% | B11
12 |  | 0% | 0% | B12
13 | 43% | 0% | 0% | B13
14 |  | 0% | 0% | B14

Target: T2, human IL-17RA on cells (human PBMC; …)
Test: cell-based or functional assay
Remark: another data set of the same source

Row | % Inhibition of IL-5 production (TSLP treated human PBMC + IL-2 + IL-25), inhibitor 10 micrograms/mL | Binder
15 | 86% | B2
16 | 100% | B3
